Test results: patent US20100184658A1 (published 2010)

Assays:
Experiment in all cases: cell-based or functional assay
[1] = biological target: MAPKAPK2 Mitogen-activated protein kinase-activated protein kinase 2 (UniProt P49137 1-400, limits assumed)
[2] = biological target: T1, PRKD2 (PKD2) Protein kinase D2 (UniProt Q9BZL6 1-878, limits assumed)
T1 sequence (looked up): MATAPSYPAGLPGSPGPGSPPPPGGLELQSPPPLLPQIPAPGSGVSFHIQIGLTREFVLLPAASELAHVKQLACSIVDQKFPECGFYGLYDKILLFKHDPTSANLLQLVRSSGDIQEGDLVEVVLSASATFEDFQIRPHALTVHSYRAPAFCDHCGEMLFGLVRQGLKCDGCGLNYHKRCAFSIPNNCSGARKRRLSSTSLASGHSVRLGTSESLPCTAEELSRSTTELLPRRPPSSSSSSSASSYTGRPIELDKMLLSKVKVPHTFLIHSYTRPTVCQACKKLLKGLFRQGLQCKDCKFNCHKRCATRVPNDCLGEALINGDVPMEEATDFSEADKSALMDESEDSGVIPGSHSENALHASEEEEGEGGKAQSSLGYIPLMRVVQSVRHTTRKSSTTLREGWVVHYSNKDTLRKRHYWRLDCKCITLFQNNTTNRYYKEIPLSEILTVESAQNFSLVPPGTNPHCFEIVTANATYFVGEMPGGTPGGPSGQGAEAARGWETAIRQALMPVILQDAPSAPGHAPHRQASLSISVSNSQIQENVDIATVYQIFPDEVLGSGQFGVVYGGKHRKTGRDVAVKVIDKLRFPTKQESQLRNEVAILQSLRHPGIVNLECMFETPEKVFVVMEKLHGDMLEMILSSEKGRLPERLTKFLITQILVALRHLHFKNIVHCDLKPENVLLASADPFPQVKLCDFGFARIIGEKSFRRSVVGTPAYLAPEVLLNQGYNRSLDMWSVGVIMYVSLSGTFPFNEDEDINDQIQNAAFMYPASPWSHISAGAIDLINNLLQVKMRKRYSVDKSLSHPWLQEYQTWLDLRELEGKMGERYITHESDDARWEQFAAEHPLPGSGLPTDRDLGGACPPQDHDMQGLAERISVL

[3] = biological target: PIM1 Pim-1 oncogene (UniProt P11309 1-313, limits assumed)
[4] = biological target: T2, STK4 (MST1) Serine/threonine kinase 4 (UniProt Q13043 1-487, limits assumed)
T2 sequence (looked up): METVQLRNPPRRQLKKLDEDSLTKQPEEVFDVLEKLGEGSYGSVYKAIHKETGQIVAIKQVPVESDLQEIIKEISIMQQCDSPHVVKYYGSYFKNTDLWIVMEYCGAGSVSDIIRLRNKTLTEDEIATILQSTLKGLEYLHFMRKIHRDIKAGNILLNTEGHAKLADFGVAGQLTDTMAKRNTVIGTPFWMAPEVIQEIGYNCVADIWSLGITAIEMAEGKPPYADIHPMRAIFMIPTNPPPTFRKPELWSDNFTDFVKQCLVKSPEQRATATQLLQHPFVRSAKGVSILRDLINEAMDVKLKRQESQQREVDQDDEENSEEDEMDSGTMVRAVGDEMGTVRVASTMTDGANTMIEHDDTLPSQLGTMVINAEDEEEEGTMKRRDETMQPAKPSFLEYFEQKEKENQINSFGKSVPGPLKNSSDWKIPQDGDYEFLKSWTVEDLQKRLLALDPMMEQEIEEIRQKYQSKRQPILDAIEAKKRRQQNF

[5] = biological target: DAPK3 (ZIPK) (UniProt O43293 1-454, limits assumed)
[6] = biological target: SYK Spleen tyrosine kinase (UniProt P43405 1-635, limits assumed)
[7] = biological target: PRKCD (PKC delta) (UniProt Q05655 1-676, limits assumed)
[8] = biological target: ABL1 E255K (UniProt P00519 1-1130, limits assumed)
[9] = biological target: T3, DYRK4 (UniProt Q9NR20 1-520, limits assumed)
T3 sequence (looked up): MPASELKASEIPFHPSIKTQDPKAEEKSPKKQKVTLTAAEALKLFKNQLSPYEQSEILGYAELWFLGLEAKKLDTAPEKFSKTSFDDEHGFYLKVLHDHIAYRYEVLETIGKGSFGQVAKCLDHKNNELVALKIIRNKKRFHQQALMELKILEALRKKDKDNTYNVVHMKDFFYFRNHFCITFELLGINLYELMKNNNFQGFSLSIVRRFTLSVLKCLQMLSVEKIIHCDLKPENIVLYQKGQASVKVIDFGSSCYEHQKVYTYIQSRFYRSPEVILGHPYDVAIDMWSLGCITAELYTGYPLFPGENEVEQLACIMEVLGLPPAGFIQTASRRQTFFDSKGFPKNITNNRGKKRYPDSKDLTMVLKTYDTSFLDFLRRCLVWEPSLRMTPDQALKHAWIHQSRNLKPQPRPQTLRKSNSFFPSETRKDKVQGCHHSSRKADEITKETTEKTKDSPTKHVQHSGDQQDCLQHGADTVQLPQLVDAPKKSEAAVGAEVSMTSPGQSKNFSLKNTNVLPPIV

[10] = biological target: T4, PDK1 (human (printed as (h)), UniProt O15530 1-556, limits assumed)
T4 sequence (looked up): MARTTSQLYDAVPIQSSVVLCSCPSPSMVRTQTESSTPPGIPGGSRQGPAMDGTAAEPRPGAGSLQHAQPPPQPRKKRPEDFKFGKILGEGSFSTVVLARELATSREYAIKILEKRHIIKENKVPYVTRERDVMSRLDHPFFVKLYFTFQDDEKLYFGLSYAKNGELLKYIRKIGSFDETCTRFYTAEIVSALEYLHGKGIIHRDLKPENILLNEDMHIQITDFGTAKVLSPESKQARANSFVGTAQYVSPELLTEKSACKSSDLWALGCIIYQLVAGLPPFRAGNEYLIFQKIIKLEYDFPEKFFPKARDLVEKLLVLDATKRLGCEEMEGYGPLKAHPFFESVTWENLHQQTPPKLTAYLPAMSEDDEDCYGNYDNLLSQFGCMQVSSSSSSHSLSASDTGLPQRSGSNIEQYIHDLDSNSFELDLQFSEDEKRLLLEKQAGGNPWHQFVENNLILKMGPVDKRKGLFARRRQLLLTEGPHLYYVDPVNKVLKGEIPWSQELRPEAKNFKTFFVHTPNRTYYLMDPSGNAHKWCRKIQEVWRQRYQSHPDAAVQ
Further: test concentration or dose not given here.

PIM1 Pim-1 oncogene, sequence (P11309 whole entry): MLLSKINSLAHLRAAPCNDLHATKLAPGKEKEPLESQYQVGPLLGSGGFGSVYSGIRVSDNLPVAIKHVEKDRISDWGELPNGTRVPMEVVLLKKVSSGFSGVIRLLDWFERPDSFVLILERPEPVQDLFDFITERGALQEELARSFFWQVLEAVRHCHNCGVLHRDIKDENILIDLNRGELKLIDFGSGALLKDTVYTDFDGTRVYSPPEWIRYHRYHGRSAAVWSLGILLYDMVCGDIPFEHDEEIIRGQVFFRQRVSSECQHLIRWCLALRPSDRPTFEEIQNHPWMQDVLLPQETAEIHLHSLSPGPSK
MAPKAPK2 Mitogen-activated protein kinase-activated protein kinase 2, sequence (P49137 whole entry): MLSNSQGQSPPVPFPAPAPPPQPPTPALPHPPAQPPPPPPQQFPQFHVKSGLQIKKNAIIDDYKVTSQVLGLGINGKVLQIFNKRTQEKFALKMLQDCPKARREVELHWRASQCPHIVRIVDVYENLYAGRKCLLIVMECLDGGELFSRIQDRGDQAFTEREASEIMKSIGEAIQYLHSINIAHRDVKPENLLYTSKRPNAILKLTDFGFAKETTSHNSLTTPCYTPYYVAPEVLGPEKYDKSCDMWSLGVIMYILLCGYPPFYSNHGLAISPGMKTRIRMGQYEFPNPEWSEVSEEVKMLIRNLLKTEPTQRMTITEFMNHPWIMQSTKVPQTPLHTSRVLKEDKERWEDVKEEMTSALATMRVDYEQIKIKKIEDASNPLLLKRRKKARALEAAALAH
ABL1 E255K, sequence (P00519 whole entry E255K): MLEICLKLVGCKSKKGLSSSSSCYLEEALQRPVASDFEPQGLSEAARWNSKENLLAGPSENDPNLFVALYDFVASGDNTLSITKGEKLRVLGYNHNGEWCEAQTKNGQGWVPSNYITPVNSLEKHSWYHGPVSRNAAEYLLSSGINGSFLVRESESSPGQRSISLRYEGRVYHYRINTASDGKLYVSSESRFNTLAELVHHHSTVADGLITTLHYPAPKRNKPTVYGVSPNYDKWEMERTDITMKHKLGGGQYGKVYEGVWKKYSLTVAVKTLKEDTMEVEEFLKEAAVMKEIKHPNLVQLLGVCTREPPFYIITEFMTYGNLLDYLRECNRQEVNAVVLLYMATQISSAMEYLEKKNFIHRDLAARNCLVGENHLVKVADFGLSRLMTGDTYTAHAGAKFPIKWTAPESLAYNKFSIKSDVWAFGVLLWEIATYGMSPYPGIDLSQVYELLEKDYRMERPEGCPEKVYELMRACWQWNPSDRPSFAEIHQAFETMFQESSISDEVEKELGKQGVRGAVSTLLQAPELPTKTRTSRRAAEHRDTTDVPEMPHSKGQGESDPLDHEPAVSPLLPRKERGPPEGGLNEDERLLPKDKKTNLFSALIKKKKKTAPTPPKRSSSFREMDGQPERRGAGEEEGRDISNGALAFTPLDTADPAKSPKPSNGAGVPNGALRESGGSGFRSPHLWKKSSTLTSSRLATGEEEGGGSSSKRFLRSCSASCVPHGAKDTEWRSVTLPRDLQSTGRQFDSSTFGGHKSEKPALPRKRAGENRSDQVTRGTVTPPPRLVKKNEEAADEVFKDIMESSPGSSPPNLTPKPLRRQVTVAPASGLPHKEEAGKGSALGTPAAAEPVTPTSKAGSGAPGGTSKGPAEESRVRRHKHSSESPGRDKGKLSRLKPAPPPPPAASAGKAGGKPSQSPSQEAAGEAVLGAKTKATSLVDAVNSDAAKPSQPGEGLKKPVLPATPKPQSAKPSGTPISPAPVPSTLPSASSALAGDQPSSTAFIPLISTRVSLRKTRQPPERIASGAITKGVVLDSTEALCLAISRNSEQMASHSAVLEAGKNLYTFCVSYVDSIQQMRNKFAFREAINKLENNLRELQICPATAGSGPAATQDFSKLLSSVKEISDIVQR
DAPK3 (ZIPK), sequence (O43293 whole entry): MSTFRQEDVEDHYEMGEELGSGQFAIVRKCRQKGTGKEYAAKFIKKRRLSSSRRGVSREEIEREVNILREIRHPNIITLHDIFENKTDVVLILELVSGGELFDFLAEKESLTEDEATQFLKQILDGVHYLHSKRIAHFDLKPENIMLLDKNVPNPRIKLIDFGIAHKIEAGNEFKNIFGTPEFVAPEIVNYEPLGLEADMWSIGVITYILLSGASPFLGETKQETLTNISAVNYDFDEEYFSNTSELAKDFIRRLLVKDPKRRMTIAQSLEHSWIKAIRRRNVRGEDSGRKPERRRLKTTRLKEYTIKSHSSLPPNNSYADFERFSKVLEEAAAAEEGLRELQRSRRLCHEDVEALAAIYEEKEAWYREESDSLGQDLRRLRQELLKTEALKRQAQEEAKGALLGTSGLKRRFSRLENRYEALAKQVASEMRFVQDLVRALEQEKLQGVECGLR
PRKCD (PKC delta), sequence (Q05655 whole entry, stated change not applied): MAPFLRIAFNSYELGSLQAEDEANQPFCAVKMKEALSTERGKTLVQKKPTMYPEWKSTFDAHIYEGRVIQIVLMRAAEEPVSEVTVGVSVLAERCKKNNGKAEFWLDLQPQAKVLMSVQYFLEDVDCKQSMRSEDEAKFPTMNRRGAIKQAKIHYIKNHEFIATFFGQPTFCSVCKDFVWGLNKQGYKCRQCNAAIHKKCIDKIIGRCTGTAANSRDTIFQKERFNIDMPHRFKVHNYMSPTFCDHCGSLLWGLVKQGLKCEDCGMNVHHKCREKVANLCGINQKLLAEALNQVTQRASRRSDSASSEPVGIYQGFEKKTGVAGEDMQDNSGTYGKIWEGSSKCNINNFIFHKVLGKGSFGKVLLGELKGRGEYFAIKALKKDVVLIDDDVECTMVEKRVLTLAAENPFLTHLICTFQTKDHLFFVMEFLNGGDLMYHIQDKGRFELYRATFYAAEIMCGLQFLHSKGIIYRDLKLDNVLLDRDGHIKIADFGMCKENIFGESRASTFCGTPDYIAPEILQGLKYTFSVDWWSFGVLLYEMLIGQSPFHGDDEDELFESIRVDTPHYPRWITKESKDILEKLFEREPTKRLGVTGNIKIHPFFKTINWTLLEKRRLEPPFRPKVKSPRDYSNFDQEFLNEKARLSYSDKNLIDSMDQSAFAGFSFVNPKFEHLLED

SGRPPMIVWFNRPFLIAVSHTHGQTILFMAKVINPVGA [D3 peptide]
% Inhibition mean [1]: 58%
% Inhibition mean [2]: 92.5%
% Inhibition mean [3]: 89%
% Inhibition mean [4]: 99%
% Inhibition mean [5]: 62%
% Inhibition mean [6]: 54%
% Inhibition mean [7]: 57.4%
% Inhibition mean [8]: 65.6%
% Inhibition mean [9]: 61.2%
% Inhibition mean [10]: 64%
